# “And” between values parts separate entries of the source, which are not always exact repeats. Equal entries are not always repeated.
# Legend:
# [1] = target: Rap55, T^2-ELISA construct, cell-free expressed from PCR product with N-terminal VSV-G and C-terminal HSV epitope tags (UniProt Q8ND56)
# [2] = target: Rap55, T^2-ELISA construct, cell-free expressed from PCR product with N-terminal VSV-G and C-terminal HSV epitope tags (UniProt Q8ND56); experiment: dual-reporter T^2-ELISA, against the single-reporter HRP control
# Chain of UniProt Q8ND56 (Q8ND56 1-463, tags or fused parts left off): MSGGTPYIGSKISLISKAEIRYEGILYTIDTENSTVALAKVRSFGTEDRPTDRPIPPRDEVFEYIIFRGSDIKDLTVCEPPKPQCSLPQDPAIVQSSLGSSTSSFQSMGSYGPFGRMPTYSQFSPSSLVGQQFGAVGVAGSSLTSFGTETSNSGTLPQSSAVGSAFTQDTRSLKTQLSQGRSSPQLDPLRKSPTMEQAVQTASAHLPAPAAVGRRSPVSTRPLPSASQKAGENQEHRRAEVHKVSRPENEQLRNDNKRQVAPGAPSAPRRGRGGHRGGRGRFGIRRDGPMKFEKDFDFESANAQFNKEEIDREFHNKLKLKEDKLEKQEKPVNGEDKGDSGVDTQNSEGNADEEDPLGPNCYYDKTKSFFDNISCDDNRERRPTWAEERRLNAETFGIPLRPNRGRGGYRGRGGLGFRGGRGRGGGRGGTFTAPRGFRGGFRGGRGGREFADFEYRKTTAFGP
substance,measurement,setting,value
"anti-VSV-G horseradish peroxidase (HRP) labeled monoclonal antibody (Clone P5D4, Roche Applied Science)",Signal to Noise,[1],698 and 760
same,"Percent of Control (HRP detection, VSV-G tag)",[2],96.5%

# Source: patent US8852956
